From EP4755913A1 (Abiotech Pharmaceutical Co., Ltd, dated 2026)

How the values were obtained:
[1] = target: T1, Human c-Met membrane protein on cells (human, UniProt P08581 25-932); experiment: cell-based or functional assay
[2] = target: T2, Human EGFR membrane protein on cells (human, UniProt P00533 25-645); experiment: cell-based or functional assay
[3] = target: T3, Recombinant human EGFR-HIS (Acrobiosystems, EGR-H5222) (human, UniProt P00533 25-645); experiment: ELISA, EGFR-HIS coated, anti-human IgG Fc detection
T3 construct: Bought reagent; not shown: His tag

[4] = target: T4, Recombinant human c-Met-HIS (Acrobiosystems, C-MET-H5227) (human, UniProt P08581 25-932); experiment: ELISA, C-MET-HIS coated, anti-human IgG Fc detection
T4 construct: Bought reagent; also called HGFR-his; HGFR-HIS; not shown: His tag

[5] = target: T2, Human EGFR membrane protein on cells; experiment: flow cytometry on CHO-K1 cells overexpressing human EGFR
[6] = target: T1, Human c-Met membrane protein on cells; experiment: flow cytometry on CHO-K1 cells overexpressing human c-Met
[7] = target: Human C1q (Abcam, Cat No. AB282858) (human, UniProt P02745 23-245; P02746 28-253; P02747 29-245, limits assumed); experiment: BLI (Octet R8), antibody on FAB2G sensor, C1q in solution
[8] = target: T5, Human FcγRIIA (CD32a) (ACRO, Cat No. CDA-H5221) (human, UniProt P12318 36-218, limits assumed); experiment: BLI (Octet R8), antibody on ProA sensor, CD32a in solution
T5 construct: Used in solution against antibody on ProA sensors
T5 sequence (looked up): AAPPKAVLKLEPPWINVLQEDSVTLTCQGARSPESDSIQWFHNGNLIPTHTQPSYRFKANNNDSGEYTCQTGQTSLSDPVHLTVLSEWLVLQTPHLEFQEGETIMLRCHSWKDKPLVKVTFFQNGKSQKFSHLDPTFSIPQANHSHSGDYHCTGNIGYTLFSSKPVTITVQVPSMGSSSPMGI

[9] = target: T6, Human FcγRIIIA (CD16a-V176) (ACRO, Cat No. CD8-H52H4) (human, UniProt P08637 17-208); experiment: BLI (Octet R8), receptor on HIS1K sensor, antibody in solution
T6 construct: Immobilised on HIS1K (anti-His) sensors, so His-tagged; tag not described

[10] = target: T7, Human FcγRIIIA (CD16a-F176) (ACRO, Cat No. CDA-H5220) (human, UniProt P08637 17-208); experiment: as above
T7 construct: Immobilised on HIS1K (anti-His) sensors, so His-tagged; tag not described

[11] = target: T8, Human FcγRIIIB (CD16b) (ACRO, Cat No. CDB-H5227) (human, UniProt O75015 17-200); experiment: as above
T8 construct: Immobilised on HIS1K (anti-His) sensors, so His-tagged; tag not described

[12] = target: T9, Human FcγRIIB/C (CD32b/c) (ACRO, Cat No. CDB-H5228) (human, UniProt P31994 46-217, limits assumed); experiment: as above
T9 construct: Immobilised on HIS1K (anti-His) sensors, so His-tagged; tag not described
T9 sequence (looked up): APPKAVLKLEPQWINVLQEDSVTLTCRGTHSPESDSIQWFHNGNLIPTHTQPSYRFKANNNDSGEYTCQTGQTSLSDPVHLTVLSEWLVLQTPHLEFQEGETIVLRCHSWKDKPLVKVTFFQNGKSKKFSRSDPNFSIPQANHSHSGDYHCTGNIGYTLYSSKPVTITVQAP

[13] = target: T10, Human FcγRI (CD64) (ACRO, Cat No. FCA-H52H1) (human, UniProt P12314 16-288, limits assumed); experiment: as above
T10 construct: His-tagged (CD64-His), immobilised on HIS1K sensors; tag not described; also called CD64-His

[14] = target: T11, Human FcRn (ACRO, Cat No. FCM-H8286) (human, UniProt P55899 24-297; P61769 21-119, biotinylated (Bio-FcRn, site not stated)); experiment: BLI (Octet R8), biotinylated FcRn on SA sensor, antibody in solution
T11 construct: immobilised on SA (streptavidin) sensors; also called Bio-FcRn

[15] = target: T4, Recombinant human c-Met-HIS …; experiment: BLI (Octet R8), affinity for c-Met-his compared with affinity for EGFR-HIS
[16] = target: T3, Recombinant human EGFR-HIS …; experiment: BLI (Octet R8), antibody captured on AHC2 sensor, EGFR-His in solution
[17] = target: T4, Recombinant human c-Met-HIS …; experiment: BLI (Octet R8), antibody captured on AHC2 sensor, c-Met-HIS in solution
[18] = target: T12, HGFR-hfc (Acrobiosystems, Cat No. MET-H5256) (human, UniProt P08581 25-932); experiment: blocking ELISA, HGFR-hfc coated, HGF-HIS as competitor ligand, anti-His detection
T12 construct: Bought reagent; also called human HGFR protein; receptor c-Met; not shown: human Fc (hfc)

B1: Anti-c-Met/EGFR bispecific antibody BT461-DB (bispecific antibody, human IgG1, kappa)
light 1: DIQMTQSPSSLSASVGDRVTITCRSSQNIVHSNGNTYLDWYQQTPGKAPKLLIYKVSNRFSGVPSRFSGSGSGTDFTFTISSLQPEDIATYYCFQYSHVPWTFGQGTKLQITRTVAAPSVFIFPPSDEQLKSGTASVVCLLNNFYPREAKVQWKVDNALQSGNSQESVTEQDSKDSTYSLSSTLTLSKADYEKHKVYACEVTHQGLSSPVTKSFNRGEC
heavy 1: not shown
light 2: DIQMTQSPSSLSASVGDRVTITCSVSSSVSSIYLHWYQQKPGKAPKLLIYSTSNLASGVPSRFSGSGSGTDFTLTISSLQPEDFATYYCQVYSGYPLTFGGGTKVEIKRTVAAPSVFIFPPSDEQLKSGTASVVCLLNNFYPREAKVQWKVDNALQSGNSQESVTEQDSKDSTYSLSSTLTLSKADYEKHKVYACEVTHQGLSSPVTKSFNRGEC
heavy 2: not shown
notes: DuoBody format, assembled in vitro by Fab arm exchange from BT461-DB-EGFR and BT461-DB-c-Met; parents expressed in FUT8 knock-out CHO-K1 cells (no fucose); also called BT461 with Duobody structure
**Q.** What does the source list for B1?
**A.** EC50 of Antibody-Mediated ADCC Killing Curves (ADCC Reporter Bioassay, CHOK1-c-Met target cells) [1]: 0.162 µg/mL; EC50 of Antibody-Mediated ADCC Killing Curves (ADCC Reporter Bioassay, CHOK1-EGFR target cells) [2]: 0.185 µg/mL; EC50 [3]: 1.3 µg/mL; EC50 [4]: 0.00822 µg/mL; EC50 [5]: 1.73 µg/mL; EC50 [6]: 0.266 µg/mL; Kd [7]: 11.2 nM; Kd [8]: 1520 nM; Kd [9]: 26.5 nM; Kd [10]: 330 nM; Kd [11]: 14400 nM; Kd [12]: 1650 nM; Kd [13]: 8.97 nM; Kd [14]: 228 nM; fold difference between the affinities of the two arms (c-Met-his against EGFR-HIS) [15]: > 20 fold; Kd [16]: 21.9 nM; koff [16]: 0.0033 s⁻¹; kon [16]: 151000 M⁻¹ s⁻¹; Kd [17]: 0.766 nM; koff [17]: 0.000213 s⁻¹; kon [17]: 278000 M⁻¹ s⁻¹; IC50 [18]: 0.456 µg/mL
